Data published in publication PMC10760096.

Target: CH848-d949 DE3 design SOSIP Env (HIV-1)
Assay: SPR

B1: DH270 lineage intermediate I5.6 Fab (Fab, V domains shown)
VH: QVQLVQSGAEVKKPGASVKVSCKASGYTFTDYYIHWVRQAPGQGLEWMGWINPNTGRTNSAQKFQGRVTMTRDTSISTAYMELSRLRSDDTAVYYCARGGWIGLYYDSSGYPNFDYWGQGTLVTVSS
VL: QSALTQPASVSGSPGQSITISCTGTSYDVGSYNLVSWYQQHPGKAPKLMIYEVSKRPSGVSNRFSGSKSGNTASLTISGLQAEDEADYYCCSYAGSSTVVFGGGTKLTVL
Work on B1 yielded a fold change in association rate (ka) against unmutated CH848-d949 of 45 fold.
